Values quoted from earlier work in US9394339B2, “Stabilized formulations of peptides and proteins protecting against non-enzymatic degradation” (Lyotropic Therapeutics, Inc., priority 2007, dated 2016).
Read-outs that look alike come from different tables or passages of the source.

Conditions: for T1/2 (half-life, deamidation): buffer
[1] = aqueous solution, pH 7.4, 37° C., Tris-HCl buffer

Molecule | T1/2 (half-life, deamidation) (pH 7.4) [days] | T1/10 (time to 10% degradation by deamidation) (pH 7.4) [days] | T1/10 (time to 10% degradation by deamidation) [1] [days]
Fructose bisphosphate aldolase (4ALD): human protein (protein, UniProt P04075 2-364, looked up) Fructose-bisphosphate …: PYQYPALTPEQKKELSDIAHRIVAPGKGILAADESTGSIAKRLQSIGTENTEENRRFYRQLLLTADDRVNPCIGGVILFHETLYQKADDGRPFPQVIKSKGGVVGIKVDKGVVPLAGTNGETTTQGLDGLSERCAQYKKDGADFAKWRCVLKIGEHTPSALAIMENANVLARYASICQQNGIVPIVEPEILPDGDHDLKRCQYVTEKVLAAVYKALSDHHIYLEGTLLKPNMVTPGHACTQKFSHEEIAMATVTALRRTVPPAVTGITFLSGGQSEEEASINLNAINKCPLLKPWALTFSYGRALQASALKAWGGKKENLKAAQEEYVKRALANSLACQGKYTPSGQAGAAASESLFVSNHAY | 7.6 | 1.2 | 
Acetylcholinesterase (1F8U): human protein (protein, UniProt P22303 32-614, looked up) Acetylcholinesterase: EGREDAELLVTVRGGRLRGIRLKTPGGPVSAFLGIPFAEPPMGPRRFLPPEPKQPWSGVVDATTFQSVCYQYVDTLYPGFEGTEMWNPNRELSEDCLYLNVWTPYPRPTSPTPVLVWIYGGGFYSGASSLDVYDGRFLVQAERTVLVSMNYRVGAFGFLALPGSREAPGNVGLLDQRLALQWVQENVAAFGGDPTSVTLFGESAGAASVGMHLLSPPSRGLFHRAVLQSGAPNGPWATVGMGEARRRATQLAHLVGCPPGGTGGNDTELVACLRTRPAQVLVNHEWHVLPQESVFRFSFVPVVDGDFLSDTPEALINAGDFHGLQVLVGVVKDEGSYFLVYGAPGFSKDNESLISRAEFLAGVRVGVPQVSDLAAEAVVLHYTDWLHPEDPARLREALSDVVGDHNVVCPVAQLAGRLAAQGARVYAYVFEHRASTLSWPLWMGVPHGYEIEFIFGIPLDPSRNYTAEEKIFAQRLMRYWANFARTGDPNEPRDPKAPQWPPYTAGAQQYVSLDLRPLEVRRGLRAQACAFWNRFLPKLLSATDTLDEAERQWKAEFHRWSSYMVHWKNQFDHYSKQDRCSDL |  |  | 3.5
Myeloperoxidase (1MHL): human protein (protein, UniProt P05164 165-745, looked up) Myeloperoxidase: VTCPEQDKYRTITGMCNNRRSPTLGASNRAFVRWLPAEYEDGFSLPYGWTPGVKRNGFPVALARAVSNEIVRFPTDQLTPDQERSLMFMQWGQLLDHDLDFTPEPAARASFVTGVNCETSCVQQPPCFPLKIPPNDPRIKNQADCIPFFRSCPACPGSNITIRNQINALTSFVDASMVYGSEEPLARNLRNMSNQLGLLAVNQRFQDNGRALLPFDNLHDDPCLLTNRSARIPCFLAGDTRSSEMPELTSMHTLLLREHNRLATELKSLNPRWDGERLYQEARKIVGAMVQIITYRDYLPLVLGPTAMRKYLPTYRSYNDSVDPRIANVFTNAFRYGHTLIQPFMFRLDNRYQPMEPNPRVPLSRVFFASWRVVLEGGIDPILRGLMATPAKLNRQNQIAVDEIRERLFEQVMRIGLDLPALNMQRSRDHGLPGYNAWRRFCGLPQPETVGQLGTVLRNLKLARKLMEQYGTPNNIDIWMGGVSEPLKRKGRVGPLLACIIGTQFRKLRDGDRFWWENEGVFSMQQRQALAQISLPRIICDNTGITTVSKNNIFMSNSYPRDFVNCSTLPALNLASWREAS |  |  | 2.4
S-adenosylhomocysteine hydrolase (1A7A): human protein (protein, UniProt P23526 2-432, looked up) Adenosylhomocysteinase: SDKLPYKVADIGLAAWGRKALDIAENEMPGLMRMRERYSASKPLKGARIAGCLHMTVETAVLIETLVTLGAEVQWSSCNIFSTQDHAAAAIAKAGIPVYAWKGETDEEYLWCIEQTLYFKDGPLNMILDDGGDLTNLIHTKYPQLLPGIRGISEETTTGVHNLYKMMANGILKVPAINVNDSVTKSKFDNLYGCRESLIDGIKRATDVMIAGKVAVVAGYGDVGKGCAQALRGFGARVIITEIDPINALQAAMEGYEVTTMDEACQEGNIFVTTTGCIDIILGRHFEQMKDDAIVCNIGHFDVEIDVKWLNENAVEKVNIKPQVDRYRLKNGRRIILLAEGRLVNLGCAMGHPSFVMSNSFTNQVMAQIELWTHPDKYPVGVHFLPKKLDEAVAEAHLGKLNVKLTKLTEKQAQYLGMSCDGPFKPDHYRY |  |  | 4.3
Pepsinogen (1HTR): human protein (protein, UniProt P20142 17-388, looked up, pro-form) pro-form: AVVKVPLKKFKSIRETMKEKGLLGEFLRTHKYDPAWKYRFGDLSVTYEPMAYMDAAYFGEISIGTPPQNFLVLFDTGSSNLWVPSVYCQSQACTSHSRFNPSESSTYSTNGQTFSLQYGSGSLTGFFGYDTLTVQSIQVPNQEFGLSENEPGTNFVYAQFDGIMGLAYPALSVDEATTAMQGMVQEGALTSPVFSVYLSNQQGSSGGAVVFGGVDSSLYTGQIYWAPVTQELYWQIGIEEFLIGGQASGWCSEGCQAIVDTGTSLLTVPQQYMSALLQATGAQEDEYGQFLVNCNSIQNLPSLTFIINGVEFPLPPSSYILSNNGYCTVGVEPTYLSSQNGQPLWILGDVFLRSYYSVYDLGNNRVGFATAA |  |  | 3.0
Interleukin-16 (1I16): human protein (protein, UniProt Q14005 1212-1332, looked up) Interleukin-16: SAASASAASDVSVESTAEATVCTVTLEKMSAGLGFSLEGGKGSLHGDKPLTINRIFKGAASEQSETVQPGDEILQLGGTAMQGLTRFEAWNIIKALPDGPVTIVIRRKSLQSKETTAAGDS |  |  | 2.6
Bone morphogenetic protein 7 (1BMP): human protein (protein, UniProt P18075 293-431, looked up) Bone morphogenetic protein 7: STGSKQRSQNRSKTPKNQEALRMANVAENSSSDQRQACKKHELYVSFRDLGWQDWIIAPEGYAAYYCEGECAFPLNSYMNATNHAIVQTLVHFINPETVPKPCCAPTQLNAISVLYFDDSSNVILKKYRNMVVRACGCH |  |  | 3.2
Karyopherin 2 (1QBK): human protein (protein, UniProt Q92973 1-898, looked up) Transportin-1: MVWDRQTKMEYEWKPDEQGLQQILQLLKESQSPDTTIQRTVQQKLEQLNQYPDFNNYLIFVLTKLKSEDEPTRSLSGLILKNNVKAHFQNFPNGVTDFIKSECLNNIGDSSPLIRATVGILITTIASKGELQNWPDLLPKLCSLLDSEDYNTCEGAFGALQKICEDSAEILDSDVLDRPLNIMIPKFLQFFKHSSPKIRSHAVACVNQFIISRTQALMLHIDSFIENLFALAGDEEPEVRKNVCRALVMLLEVRMDRLLPHMHNIVEYMLQRTQDQDENVALEACEFWLTLAEQPICKDVLVRHLPKLIPVLVNGMKYSDIDIILLKGDVEEDETIPDSEQDIRPRFHRSRTVAQQHDEDGIEEEDDDDDEIDDDDTISDWNLRKCSAAALDVLANVYRDELLPHILPLLKELLFHHEWVVKESGILVLGAIAEGCMQGMIPYLPELIPHLIQCLSDKKALVRSITCWTLSRYAHWVVSQPPDTYLKPLMTELLKRILDSNKRVQEAACSAFATLEEEACTELVPYLAYILDTLVFAFSKYQHKNLLILYDAIGTLADSVGHHLNKPEYIQMLMPPLIQKWNMLKDEDKDLFPLLECLSSVATALQSGFLPYCEPVYQRCVNLVQKTLAQAMLNNAQPDQYEAPDKDFMIVALDLLSGLAEGLGGNIEQLVARSNILTLMYQCMQDKMPEVRQSSFALLGDLTKACFQHVKPCIADFMPILGTNLNPEFISVCNNATWAIGEISIQMGIEMQPYIPMVLHQLVEIINRPNTPKTLLENTAITIGRLGYVCPQEVAPMLQQFIRPWCTSLRNIRDNEEKDSAFRGICTMISVNPSGVIQDFIFFCDAVASWINPKDDLRDMFCKILHGFKNQVGDENWRRFSDQFPLPLKERLAAFYGV |  |  | 0.81
Catalase (1QQW): human protein (protein, UniProt P04040 2-527, looked up) Catalase: ADSRDPASDQMQHWKEQRAAQKADVLTTGAGNPVGDKLNVITVGPRGPLLVQDVVFTDEMAHFDRERIPERVVHAKGAGAFGYFEVTHDITKYSKAKVFEHIGKKTPIAVRFSTVAGESGSADTVRDPRGFAVKFYTEDGNWDLVGNNTPIFFIRDPILFPSFIHSQKRNPQTHLKDPDMVWDFWSLRPESLHQVSFLFSDRGIPDGHRHMNGYGSHTFKLVNANGEAVYCKFHYKTDQGIKNLSVEDAARLSQEDPDYGIRDLFNAIATGKYPSWTFYIQVMTFNQAETFPFNPFDLTKVWPHKDYPLIPVGKLVLNRNPVNYFAEVEQIAFDPSNMPPGIEASPDKMLQGRLFAYPDTHRHRLGPNYLHIPVNCPYRARVANYQRDGPMCMQDNQGGAPNYYPNSFGAPEQQPSALEHSIQYSGEVRRFNTANDDNVTQVRAFYVNVLNEEQRKRLCENIAGHLKDAQIFIQKKAVKNFTEVHPDYGSHIQALLDKYNAEKPKNAIHTFVQSGSHLAAREKANL |  |  | 3.8
Farnesyltransferase (1EZF): human protein (protein, UniProt P37268 1-417, looked up) Squalene synthase: MEFVKCLGHPEEFYNLVRFRIGGKRKVMPKMDQDSLSSSLKTCYKYLNQTSRSFAAVIQALDGEMRNAVCIFYLVLRALDTLEDDMTISVEKKVPLLHNFHSFLYQPDWRFMESKEKDRQVLEDFPTISLEFRNLAEKYQTVIADICRRMGIGMAEFLDKHVTSEQEWDKYCHYVAGLVGIGLSRLFSASEFEDPLVGEDTERANSMGLFLQKTNIIRDYLEDQQGGREFWPQEVWSRYVKKLGDFAKPENIDLAVQCLNELITNALHHIPDVITYLSRLRNQSVFNFCAIPQVMAIATLAACYNNQQVFKGAVKIRKGQAVTLMMDATNMPAVKAIIYQYMEEIYHRIPDSDPSSSKTRQIISTIRTQNLPNCQLISRSHYSPIYLSFVMLLAALSWQYLTTLSQVTEDYVQTGEH |  |  | 4.0
Inositol monophosphatase (1IMB): human protein (protein, UniProt P29218 1-277, looked up) Inositol monophosphatase 1: MADPWQECMDYAVTLARQAGEVVCEAIKNEMNVMLKSSPVDLVTATDQKVEKMLISSIKEKYPSHSFIGEESVAAGEKSILTDNPTWIIDPIDGTTNFVHRFPFVAVSIGFAVNKKIEFGVVYSCVEGKMYTARKGKGAFCNGQKLQVSQQEDITKSLLVTELGSSRTPETVRMVLSNMEKLFCIPVHGIRSVGTAAVNMCLVATGGADAYYEMGIHCWDVAGAGIIVTEAGGVLMDVTGGPFDLMSRRVIAANNRILAERIAKEIQVIPLQRDDED | 15 | 2.3 | 
Dihydrofolate reductase (1DRF): human protein (protein, UniProt P00374 1-187, looked up) Dihydrofolate reductase: MVGSLNCIVAVSQNMGIGKNGDLPWPPLRNEFRYFQRMTTTSSVEGKQNLVIMGKKTWFSIPEKNRPLKGRINLVLSRELKEPPQGAHFLSRSLDDALKLTEQPELANKVDMVWIVGGSSVYKEAMNHPGHLKLFVTRIMQDFESDTFFPEIDLEKYKLLPEYPGVLSDVQEEKGIKYKFEVYEKND | 25 | 3.8 | 
